Assay results from PMC7159994.

Biological target: GST-IRP2Δ73 (human) (UniProt P48200)
Test: AlphaScreen or HTRF

FBXL5C492Δ-SKP1 complex (tag-free) (from UniProt Q9UKA1 200-691; P63208 1-163)
IC50: 0.12 nM
